Series [1] addresses c-Src SH2. Put plainly: SH2 binding enrichment of the phosphorylated peptide, bacterial display (enrichment ratio); higher = better substrate or ligand; peptides without Tyr show the background.
The target in series [2] is SHP2-C SH2. Described as above.
In series [3] the target is Grb2 SH2 (UniProt P62993). The description is as above.
The target in series [4] is FGFR1 (UniProt P11362). The experiment in a line: phosphorylation enrichment, bacterial display (enrichment ratio); higher = better substrate or ligand; peptides without Tyr show the background.
Series [5] has as its target Jak2 (UniProt O60674). The series is described as above.
The target of series [6] is EPHB2 (UniProt P29323). The description is as above.
Series [7] deals with c-Abl (mouse). The series is described as above.
Series [8] deals with MERTK (UniProt Q12866). Described as above.
Series [9] concerns the target FGFR3 (UniProt P22607). The description is as above.
The test system of series [10] is AncSZ. The series is described as above.
Series [11] deals with Hck (UniProt P08631). Described as above.
The target of series [12] is Fes (UniProt P07332). The series is described as above.
In series [13] the target is EPHB1 (UniProt P54762). The series is described as above.
The target in series [14] is Fyn (UniProt P06241). The series is described as above.
For series [15], the system named is c-Src. The description is as above.
For series [16], the system named is Fer (mouse). The description is as above.

Seven sequences from the supplement of paper PMC10065799, “High-throughput profiling of sequence recognition by tyrosine kinases and SH2 domains using bacterial peptide display” (eLife, 2023) can be followed below.
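For SH2 binding enrichment of the phosphorylated peptide, bacterial display in this document: peptide library displayed on the E. coli surface as eCPX fusions, selected cells deep-sequenced, score is each peptide's frequency after selection divided by its frequency in the input.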
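For phosphorylation enrichment, bacterial display in this document: 11-residue human phosphosite peptides and single-mutation variants displayed on the E. coli surface, counted by deep sequencing, each peptide's frequency after selection divided by its frequency in the unselected input library; frequency after pTyr selection over input frequency; kinase dosed for 20-30% of maximal phosphorylation in three min.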

Chain of FGFR1 (P11362 whole entry, looked up): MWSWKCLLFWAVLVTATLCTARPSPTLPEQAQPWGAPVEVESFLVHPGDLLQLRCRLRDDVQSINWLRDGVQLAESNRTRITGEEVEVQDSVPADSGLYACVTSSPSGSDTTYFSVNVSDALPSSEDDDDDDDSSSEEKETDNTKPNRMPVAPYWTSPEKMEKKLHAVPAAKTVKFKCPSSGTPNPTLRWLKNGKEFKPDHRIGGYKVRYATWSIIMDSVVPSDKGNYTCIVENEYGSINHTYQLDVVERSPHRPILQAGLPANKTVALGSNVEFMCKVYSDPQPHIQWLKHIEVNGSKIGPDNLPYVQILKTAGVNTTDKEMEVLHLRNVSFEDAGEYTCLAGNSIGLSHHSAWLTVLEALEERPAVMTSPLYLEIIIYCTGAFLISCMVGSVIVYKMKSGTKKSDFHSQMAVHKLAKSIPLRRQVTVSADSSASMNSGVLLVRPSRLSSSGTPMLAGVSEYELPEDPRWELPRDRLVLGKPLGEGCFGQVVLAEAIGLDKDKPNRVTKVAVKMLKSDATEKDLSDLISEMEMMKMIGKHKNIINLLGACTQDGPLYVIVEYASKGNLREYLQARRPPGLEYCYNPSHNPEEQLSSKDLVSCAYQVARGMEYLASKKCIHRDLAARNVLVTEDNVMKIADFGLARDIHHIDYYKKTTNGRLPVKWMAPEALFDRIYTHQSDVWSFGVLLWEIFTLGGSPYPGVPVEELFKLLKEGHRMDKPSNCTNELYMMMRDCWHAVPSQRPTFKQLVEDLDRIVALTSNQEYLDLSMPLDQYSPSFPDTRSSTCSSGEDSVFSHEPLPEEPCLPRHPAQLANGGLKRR
Chain of Hck (P08631 whole entry, looked up): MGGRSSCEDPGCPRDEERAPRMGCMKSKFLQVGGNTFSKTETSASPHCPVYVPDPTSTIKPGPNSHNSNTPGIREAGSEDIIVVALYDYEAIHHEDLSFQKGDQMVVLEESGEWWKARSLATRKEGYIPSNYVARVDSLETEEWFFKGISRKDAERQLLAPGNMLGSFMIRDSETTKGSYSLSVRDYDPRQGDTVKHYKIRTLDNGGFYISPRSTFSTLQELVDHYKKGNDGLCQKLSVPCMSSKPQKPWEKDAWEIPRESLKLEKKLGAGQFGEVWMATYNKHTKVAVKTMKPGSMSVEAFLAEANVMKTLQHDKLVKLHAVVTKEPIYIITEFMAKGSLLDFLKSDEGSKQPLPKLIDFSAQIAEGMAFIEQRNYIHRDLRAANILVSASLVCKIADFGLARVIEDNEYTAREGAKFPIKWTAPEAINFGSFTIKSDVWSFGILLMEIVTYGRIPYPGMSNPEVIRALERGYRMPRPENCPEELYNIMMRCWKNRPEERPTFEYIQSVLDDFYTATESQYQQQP
Chain of EPHB1 (P54762 whole entry, looked up): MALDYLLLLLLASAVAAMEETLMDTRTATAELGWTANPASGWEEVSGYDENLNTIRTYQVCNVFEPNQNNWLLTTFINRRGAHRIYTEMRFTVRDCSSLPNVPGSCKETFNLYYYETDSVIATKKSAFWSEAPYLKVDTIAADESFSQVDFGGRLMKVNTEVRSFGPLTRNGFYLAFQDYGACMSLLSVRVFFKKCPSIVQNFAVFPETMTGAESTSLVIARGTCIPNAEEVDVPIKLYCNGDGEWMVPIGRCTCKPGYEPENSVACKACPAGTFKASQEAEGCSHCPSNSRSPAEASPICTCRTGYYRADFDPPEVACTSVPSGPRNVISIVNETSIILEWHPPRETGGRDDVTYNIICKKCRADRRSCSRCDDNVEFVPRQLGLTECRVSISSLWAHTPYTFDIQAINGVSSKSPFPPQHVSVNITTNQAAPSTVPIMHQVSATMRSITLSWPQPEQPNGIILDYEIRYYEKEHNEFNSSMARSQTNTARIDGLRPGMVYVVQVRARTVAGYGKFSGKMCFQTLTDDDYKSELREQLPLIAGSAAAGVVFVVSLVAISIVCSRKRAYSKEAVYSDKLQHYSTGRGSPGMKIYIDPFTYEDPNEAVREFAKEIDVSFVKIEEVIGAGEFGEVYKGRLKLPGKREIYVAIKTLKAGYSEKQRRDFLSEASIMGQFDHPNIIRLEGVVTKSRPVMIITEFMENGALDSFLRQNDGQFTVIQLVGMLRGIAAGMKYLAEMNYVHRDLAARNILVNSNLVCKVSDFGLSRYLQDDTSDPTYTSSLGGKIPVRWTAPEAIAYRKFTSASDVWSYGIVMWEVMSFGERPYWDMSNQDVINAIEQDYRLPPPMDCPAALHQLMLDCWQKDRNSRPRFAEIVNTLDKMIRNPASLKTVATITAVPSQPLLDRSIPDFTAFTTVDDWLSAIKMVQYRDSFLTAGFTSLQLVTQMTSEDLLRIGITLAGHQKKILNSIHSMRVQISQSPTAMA
Chain of FGFR3 (P22607 whole entry, looked up): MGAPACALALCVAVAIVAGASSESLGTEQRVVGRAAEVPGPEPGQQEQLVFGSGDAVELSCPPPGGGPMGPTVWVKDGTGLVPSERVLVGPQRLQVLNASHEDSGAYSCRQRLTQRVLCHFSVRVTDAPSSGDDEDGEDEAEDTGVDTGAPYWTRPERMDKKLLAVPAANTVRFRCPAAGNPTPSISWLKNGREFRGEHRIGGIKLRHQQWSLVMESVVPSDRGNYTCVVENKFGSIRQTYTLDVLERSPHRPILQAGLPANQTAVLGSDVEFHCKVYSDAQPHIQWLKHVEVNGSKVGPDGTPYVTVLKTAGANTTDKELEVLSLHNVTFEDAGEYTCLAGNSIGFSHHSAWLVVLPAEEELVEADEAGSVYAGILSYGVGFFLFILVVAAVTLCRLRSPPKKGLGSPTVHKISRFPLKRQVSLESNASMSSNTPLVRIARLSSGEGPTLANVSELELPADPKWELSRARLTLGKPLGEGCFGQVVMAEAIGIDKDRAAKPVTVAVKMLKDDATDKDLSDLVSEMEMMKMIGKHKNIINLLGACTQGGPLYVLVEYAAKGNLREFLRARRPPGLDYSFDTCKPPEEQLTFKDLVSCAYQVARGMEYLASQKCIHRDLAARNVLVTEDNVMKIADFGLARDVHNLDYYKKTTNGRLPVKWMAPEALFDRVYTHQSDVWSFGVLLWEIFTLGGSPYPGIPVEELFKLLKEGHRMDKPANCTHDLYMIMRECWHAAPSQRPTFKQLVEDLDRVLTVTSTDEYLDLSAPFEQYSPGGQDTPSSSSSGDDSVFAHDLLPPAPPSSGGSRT
Chain of Jak2 (O60674 whole entry, looked up): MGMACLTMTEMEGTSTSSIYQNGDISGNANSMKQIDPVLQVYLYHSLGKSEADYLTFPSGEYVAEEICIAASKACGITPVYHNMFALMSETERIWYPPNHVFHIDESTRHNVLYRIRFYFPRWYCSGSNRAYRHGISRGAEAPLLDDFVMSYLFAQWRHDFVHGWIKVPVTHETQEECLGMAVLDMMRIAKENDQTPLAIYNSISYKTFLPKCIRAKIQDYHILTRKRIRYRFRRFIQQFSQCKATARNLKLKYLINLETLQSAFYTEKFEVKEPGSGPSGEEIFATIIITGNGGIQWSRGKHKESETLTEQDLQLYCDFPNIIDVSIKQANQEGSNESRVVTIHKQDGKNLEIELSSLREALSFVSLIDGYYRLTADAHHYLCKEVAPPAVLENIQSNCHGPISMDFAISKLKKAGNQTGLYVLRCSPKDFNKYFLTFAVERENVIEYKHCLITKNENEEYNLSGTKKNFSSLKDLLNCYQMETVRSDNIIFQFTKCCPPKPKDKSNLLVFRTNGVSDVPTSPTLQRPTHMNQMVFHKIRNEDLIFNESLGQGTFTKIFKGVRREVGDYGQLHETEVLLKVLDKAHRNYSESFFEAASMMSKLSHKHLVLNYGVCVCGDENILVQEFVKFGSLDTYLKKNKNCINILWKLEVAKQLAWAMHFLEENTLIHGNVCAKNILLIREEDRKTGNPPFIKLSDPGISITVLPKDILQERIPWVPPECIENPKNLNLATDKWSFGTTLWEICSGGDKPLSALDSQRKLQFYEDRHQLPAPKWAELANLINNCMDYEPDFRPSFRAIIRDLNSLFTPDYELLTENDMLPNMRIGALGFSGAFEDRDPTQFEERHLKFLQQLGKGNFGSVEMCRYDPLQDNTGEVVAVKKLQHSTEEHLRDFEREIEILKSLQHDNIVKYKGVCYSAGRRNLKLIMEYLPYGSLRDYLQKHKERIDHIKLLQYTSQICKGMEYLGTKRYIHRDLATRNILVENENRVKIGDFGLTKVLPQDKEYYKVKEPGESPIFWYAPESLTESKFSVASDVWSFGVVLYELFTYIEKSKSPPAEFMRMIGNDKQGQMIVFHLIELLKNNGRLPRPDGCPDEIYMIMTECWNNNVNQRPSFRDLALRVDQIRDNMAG
Chain of Fyn (P06241 whole entry, looked up): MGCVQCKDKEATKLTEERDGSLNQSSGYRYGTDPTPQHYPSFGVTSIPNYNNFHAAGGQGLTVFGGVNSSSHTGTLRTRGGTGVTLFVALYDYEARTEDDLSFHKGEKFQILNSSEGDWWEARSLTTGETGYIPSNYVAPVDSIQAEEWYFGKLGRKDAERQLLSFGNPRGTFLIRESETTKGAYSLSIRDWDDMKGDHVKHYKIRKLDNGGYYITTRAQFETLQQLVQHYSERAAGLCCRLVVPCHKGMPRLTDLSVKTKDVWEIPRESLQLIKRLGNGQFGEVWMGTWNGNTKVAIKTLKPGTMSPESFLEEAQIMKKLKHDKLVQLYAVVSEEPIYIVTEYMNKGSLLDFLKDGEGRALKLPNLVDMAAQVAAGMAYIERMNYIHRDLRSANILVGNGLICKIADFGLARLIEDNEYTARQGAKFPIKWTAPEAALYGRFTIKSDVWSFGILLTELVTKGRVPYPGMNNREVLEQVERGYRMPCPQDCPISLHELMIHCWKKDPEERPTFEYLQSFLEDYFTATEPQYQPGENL
Chain of Grb2 SH2 (P62993 whole entry, looked up): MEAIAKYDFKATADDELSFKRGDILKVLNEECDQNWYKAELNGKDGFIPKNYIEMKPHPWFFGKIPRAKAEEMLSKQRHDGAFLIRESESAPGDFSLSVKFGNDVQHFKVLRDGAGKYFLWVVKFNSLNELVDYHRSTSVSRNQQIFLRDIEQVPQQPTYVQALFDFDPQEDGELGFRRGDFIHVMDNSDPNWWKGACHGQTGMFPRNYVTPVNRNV

Regarding AEVIWYKGDEV, the SH2 binding enrichment in series [1] stood at 0.475; in series [2], 0.684; in series [3], 0.822. Moreover, the phosphorylation enrichment in series [4] was 0.433; in series [5] it was 1.42; in series [6], 0.572; in [7], 1.15; in series [8], 0.399; in series [9], 0.784. The phosphorylation enrichment in series [10] was 1.13; in series [11] it was 0.602; in [12] it was 1.41; in [13], 0.707; in series [14], 0.394; in series [15], 0.474. For the same sequence, in series [16], the phosphorylation enrichment worked out at 0.491.
For the sequence AFHGEYIPTVF [RAC2_Y32_P29H], the SH2 binding enrichment in [1] stood at 0.682; in [2], 0.59; in series [3], 0.91. Also, the phosphorylation enrichment in series [4] amounted to 0.602; in series [5], 0.571; in series [6], 0.447; in [7], 0.575; in series [8] it was 0.432; in [9], 0.635. In addition, the phosphorylation enrichment in [10] was determined as 0.859; in series [11] it was 0.412; in series [12], 0.809; in [13], 0.554; in [14] it was 0.445; in [15] it was 0.419. Further, in series [16], the phosphorylation enrichment came out at 0.391.
As to AFQGKYTPSGQ [ALDOA_Y343_C339Y_YF], the SH2 binding enrichment worked out at 0.592 in series [1], 0.803 in [2] and 0.759 in series [3]. The phosphorylation enrichment amounted to 0.309 in series [4]; 0.547 in series [5]; 0.276 in [6]; 0.432 in [7]; 0.346 in [8]; 0.328 in series [9]. For the same sequence, the phosphorylation enrichment in series [10] was found to be 0.388; in [11], 0.266; in [12], 0.446; in [13], 0.376; in series [14], 0.273; in [15] it was 0.298. Moreover, the phosphorylation enrichment in series [16] turned out to be 0.253.
Take AFSTVYKGLWI [EGFR_Y727_G724S]: the SH2 binding enrichment came to 0.653 in series [1], 1.5 in series [2] and 0.949 in series [3]. In addition, the phosphorylation enrichment in series [4] stood at 0.504; in series [5], 1.1; in series [6], 0.498; in [7], 0.814; in [8], 0.395; in series [9], 0.67. Besides, the phosphorylation enrichment is 1.01 in series [10]; 0.445 in series [11]; 1.1 in series [12]; 0.578 in [13]; 0.433 in series [14]; 0.455 in series [15]. Further, in series [16], the phosphorylation enrichment is 0.677.
With AGADGYGYLAP [FOXL2_Y186], the values for the SH2 binding enrichment in series [1], in series [2] and in series [3] were 1.09, 0.339 and 0.759, respectively. Besides, the phosphorylation enrichment amounted to 0.37 in [4]; 0.538 in series [5]; 0.464 in series [6]; 0.443 in series [7]; 0.364 in series [8]; 0.457 in series [9]. In addition, the phosphorylation enrichment came out at 0.576 in series [10]; 0.468 in [11]; 0.622 in series [12]; 0.387 in series [13]; 0.361 in series [14]; 0.372 in series [15]. Moreover, the phosphorylation enrichment in series [16] was determined as 0.26.
Turning to AGIVDYNIIGW [MYH7_Y588], the SH2 binding enrichment in series [1] worked out at 0.566; in series [2], 0.589; in series [3], 0.562. Moreover, the phosphorylation enrichment in [4] stood at 0.873; in [5], 0.877; in series [6], 0.431; in series [7], 0.619; in [8], 0.349; in series [9], 0.909. The phosphorylation enrichment came to 1.07 in [10]; 0.497 in series [11]; 1.18 in [12]; 0.636 in [13]; 0.497 in series [14]; 0.454 in series [15]. The phosphorylation enrichment in series [16] was found to be 0.439.
Consider AGKEEYSAMRD [HRAS_Y64_Q61K], for which the SH2 binding enrichment in series [1] amounted to 0.761; in series [2] it was 0.559; in series [3], 0.867. In addition, the phosphorylation enrichment in series [4] was determined as 0.529; in series [5] it was 0.644; in [6] it was 0.505; in series [7], 0.629; in series [8], 0.44; in series [9], 0.582. Also, the phosphorylation enrichment was found to be 0.799 in series [10]; 0.49 in series [11]; 0.871 in series [12]; 0.467 in [13]; 0.432 in series [14]; 0.436 in [15]. The phosphorylation enrichment in [16] was found to be 0.481.
